In the nanobody polyreactivity screen of Harvey et al. (2022):

test: yeast display, Sf9 membrane polyspecificity reagent, FACS + sequencing; frameworks hold sequencing errors
How it was run: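 A synthetic nanobody library was expressed on Saccharomyces cerevisiae BJ5465 by galactose induction for 36–48 hours. The library was stained for 1 hour at 4 °C with 10% biotinylated, detergent-solubilized Sf9 membrane reagent and enriched with streptavidin microbeads before FACS. Low and high (top ~1%) gates were set on anti-HA fluorescence for expression and streptavidin fluorescence for reagent binding, and each polyreactivity label reflects the gate of origin.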

| Sequence | polyreactivity (PSR sort gate) |
| --- | --- |
| QVQLVESGGGLVQAGGSLRLSCAASGRTFVSYAMGWYRQAPGKERELVAGITWRGGSTYYADSVKGRFTISRDNAKNTVYLQMNSLTPEDTAVYYCAKRSVLYGNRIFDYWGQGTQVTVSS | high polyreactivity |
| QVQLVESGGGLVQAGGSLRLSCAASGRTFVSYDMGWYRQAPGKERELVAAITYSGGSSTYYADSVKGRFTISRDNAKNTVYLQMNSLKPEDTAVYYCATDYSLSFELDYWGQGTQVTVSS | low polyreactivity |
| QVQLVESGGGLVQAGGSLRLSCAASGRTFVTYAMGWYRQAPGKERELVAAISKRGSRTYYADSVKGRFTISRDNAKNTVYLQMNSLKPEDTAVYYCNAYPYRTSYDYWGQGTQVTVSS | high polyreactivity |
| QVQLVESGGGLVQAGGSLRLSCAASGRTFVVNAMGWSRQAPGKERELVAAITRRGGITYYADSVKGRFTISRDNAKNTVYLQMNSLKPEDTAVYYCAADRSYYPDTRTTYGYNYWGQGTQVTVSS | low polyreactivity |
| QVQLVESGGGLVQAGGSLRLSCAASGRTFVVNAMGWYRQAPGKERELVARITNSGLTNYADSVKGRFTISRDNAKNTVYLQMNSLKPEDTAVYYCNAAASYYVMLSWTRVYYWGQGTQVTVSS | high polyreactivity |
| QVQLVESGGGLVQAGGSLRLSCAASGRTFVVYAMGWYRQAPGKERELVAVIRVIGGSTNYADSVKRRFTISRDNAKNTVYLQMYSLKPEDTAVYYCAAAWSHSRWDTHDYWGQGTQVNVSS | low polyreactivity |
| QVQLVESGGGLVQAGGSLRLSCAASGRTFVVYAMGWYRQAPGKERELVAVISFTGDSTFYADSVKGRFTISRDNGKNTVYLQMNSLKPEDTAVYYCAADFRRVFSKYSYYLYFDFDYWGQGTLVTVSS | low polyreactivity |
| QVQLVESGGGLVQAGGSLRLSCAASGRTFVWNAMGWYRQAPGKERELVAAIDWSGGSTYYADSVKGRFTISRDNAKNTVYLQMNSLKPEDSAVYYCAKEYWYRALWYNYWGQGTQVTVSS | high polyreactivity |
| QVQLVESGGGLVQAGGSLRLSCAASGRTFVWYAMGWYRQAPGKERELVAAITLSGGSTYYADSVKGRFTISRDNAKNTVYLQMNSLKPEDTAVYYCAADGTYRPEDYDYWGQGTQVTVSS | low polyreactivity |
| QVQLVESGGGLVQAGGSLRLSCAASGRTFVYNAMGWSRQAPGKERELVAAITSGGSTYYADSVKGRFTISRDNAKNTVYLQMNSLKPEDTAVYYCAAYKRGYYWGQGTQVTVSS | high polyreactivity |
| QVQLVESGGGLVQAGGSLRLSCAASGRTFVYNAMGWYRQAAGKEWELVAAISSDGASTYYADSVKGRFTISRDNAKNTAYLQMNSLKPEDTAVYYCAADFSYYSYEHYYWGQGTQVTVSS | low polyreactivity |
| QVQLVESGGGLVQAGGSLRLSCAASGRTFVYNAMGWYRQAPGKERELVAAIDGGGDRTYYADSVKGRFTISRDNAKNTVYLQMNSLKPEDTAVYYCNARWQEPLKYDYWGQGTQVTVSS | low polyreactivity |
| QVQLVESGGGLVQAGGSLRLSCAASGRTFVYNAMGWYRQAPGKEREMVSGITNGGSTNYADSVKGRFTISRDNAKNTVYLQMNSLKPEDTAVYYCAADSRVYPYYFGDFGYWGQGTQVTVSS | low polyreactivity |
| QVQLVESGGGLVQAGGSLRLSCAASGRTFVYNAMGWYSQAPGKEREMVAAISFGGGNTYYADSVKGRFTISRDNAKNTVYLQMNSLIPEDTAVYYCAKAYIGYWGASWYYAYDYWGQGTQVTVSS | low polyreactivity |
| QVQLVESGGGLVQAGGSLRLSCAASGRTFVYYAKGWYIQAPGKERELVATISSSDSTNYAYSVKGRFTISRDNAKNTVYLQMNSLKPEDTAVYYCAGGPKGGGYYDPFDYWGQGTQVNVSS | low polyreactivity |
| QVQLVESGGGLVQAGGSLRLSCAASGRTFVYYAMGWYRQAPGKEREFVAAISRSGGRTSYADSVKGRFTISRDNAKNTVYLQMNSLKPEDTAVYYCAAEKRTQPSSREYYWGQGTQVTVSS | high polyreactivity |
